Test results published in patent US20260250404A1 (Genmab, published 2026).

Columns and labels:
[1] = molecular target: T1, recombinant cynomolgus monkey CD27-Fc fusion protein (R&D systems, Cat #9904-CD-100) (cynomolgus monkey, UniProt P26842 21-192 (human entry), limits assumed); test: BLI (Octet HTX); cyno CD27-Fc on AR2G sensor, antibody monovalent for CD27 in solution; 1:1 model
T1 construct: Bought protein; also called Cyno CD27-Fc; not shown: Fc part of the fusion; not described
T1 chain: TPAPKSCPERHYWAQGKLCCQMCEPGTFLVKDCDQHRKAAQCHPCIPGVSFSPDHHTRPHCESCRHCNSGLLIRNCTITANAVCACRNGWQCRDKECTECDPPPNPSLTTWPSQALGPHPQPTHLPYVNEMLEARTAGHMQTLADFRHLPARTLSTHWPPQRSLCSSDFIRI

[2] = molecular target: T2, recombinant His-tagged human CD27 protein (Sino Biological, Cat #10039-H08B1) (human, UniProt P26842 20-192); test: BLI (Octet HTX); CD27-His on anti-Penta-HIS sensor, antibody monovalent for CD27 in solution; 1:1 model
T2 construct: Bought protein; also called Human CD27-His; not shown: His tag

[3] = molecular target: T3, recombinant His-tagged human FcγRIIa, 167-His [H] / H131 variant (human, UniProt P12318 34-218, limits assumed); test: SPR (Biacore 8K), His-tagged FcγR captured on anti-His chip, antibody injected, binding response (RU), n=3
T3 construct: catalogue numbers differ; also called FcγRIIa-H; FcγRIIa-H131
T3 sequence (looked up): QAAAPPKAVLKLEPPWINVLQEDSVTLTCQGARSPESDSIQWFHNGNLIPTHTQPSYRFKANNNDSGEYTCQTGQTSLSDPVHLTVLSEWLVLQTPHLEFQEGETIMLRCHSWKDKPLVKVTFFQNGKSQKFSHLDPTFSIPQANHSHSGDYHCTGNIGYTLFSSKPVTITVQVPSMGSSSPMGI

[4] = molecular target: T4, human FcγRIa on the cell surface (transfected CHO-S cells, M0/M1 macrophages, hMDM, FcγRI effector reporter … (human, UniProt P12314 16-374)); test: flow cytometry on CHO-S cells transiently expressing human FcγRIa, PE goat anti-human IgG F(ab')2, % PE+ cells
T4 construct: whole, on cells; also called CD64
T4 sequence (P12314 16-374): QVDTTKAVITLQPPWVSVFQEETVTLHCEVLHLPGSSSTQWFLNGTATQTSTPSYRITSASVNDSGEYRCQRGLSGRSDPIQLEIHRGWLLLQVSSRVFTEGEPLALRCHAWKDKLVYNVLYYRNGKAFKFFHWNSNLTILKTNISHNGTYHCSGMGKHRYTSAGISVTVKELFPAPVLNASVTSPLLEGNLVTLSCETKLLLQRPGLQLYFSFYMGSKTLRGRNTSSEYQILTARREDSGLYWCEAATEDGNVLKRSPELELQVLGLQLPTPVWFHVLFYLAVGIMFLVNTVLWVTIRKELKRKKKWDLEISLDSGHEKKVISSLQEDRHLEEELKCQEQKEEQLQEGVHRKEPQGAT

[5] = molecular target: T5, recombinant His-tagged human FcγRIIb (human, UniProt P31994 43-217, limits assumed); test: SPR (Biacore 8K), His-tagged FcγR captured on anti-His chip, antibody injected, binding response (RU), n=3
T5 sequence (looked up): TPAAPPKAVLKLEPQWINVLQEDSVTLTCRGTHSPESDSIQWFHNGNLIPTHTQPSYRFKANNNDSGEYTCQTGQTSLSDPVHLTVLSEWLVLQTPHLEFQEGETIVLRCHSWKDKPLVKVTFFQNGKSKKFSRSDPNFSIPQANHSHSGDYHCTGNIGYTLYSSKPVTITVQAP

[6] = molecular target: T6, recombinant human neonatal Fc receptor FcRn (SinoBiological CT071-H27H-B) (human, UniProt P55899 24-297; P61769 21-119); test: SPR (Biacore 8K) at pH 6.0; FcRn captured by anti-His, antibody as analyte; average of three measurements; pH 6.0
T6 construct: Composition of the bought protein is not described

[7] = molecular target: T7, recombinant His-tagged human FcγRIIa, 167-Arg [R] / R131 variant (human, UniProt P12318 34-218, limits assumed); test: SPR (Biacore 8K), His-tagged FcγR captured on anti-His chip, antibody injected, binding response (RU), n=3
T7 construct: catalogue numbers differ; also called FcγRIIa-R; FcγRIIa-R131
T7 sequence (looked up): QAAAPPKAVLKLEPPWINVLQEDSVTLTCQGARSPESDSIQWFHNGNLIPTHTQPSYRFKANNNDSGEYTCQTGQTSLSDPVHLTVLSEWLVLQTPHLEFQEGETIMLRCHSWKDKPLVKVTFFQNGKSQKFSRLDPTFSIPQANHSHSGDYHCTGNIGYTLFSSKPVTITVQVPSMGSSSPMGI

[8] = molecular target: T8, recombinant His-tagged human FcγRIIIa, 176-Val [V] / V158 variant (human, UniProt P08637 17-208); test: as above
T8 construct: also called FcγRIIIa-V; FcγRIIIa-V158
T8 sequence (P08637 other isoform, or with tags, fused parts or gaps mutant limits assumed): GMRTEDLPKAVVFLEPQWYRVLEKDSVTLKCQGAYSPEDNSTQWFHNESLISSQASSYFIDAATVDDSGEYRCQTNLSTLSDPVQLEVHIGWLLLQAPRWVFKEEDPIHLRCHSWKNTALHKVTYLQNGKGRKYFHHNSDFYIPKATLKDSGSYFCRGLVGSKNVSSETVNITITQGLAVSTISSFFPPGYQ

[9] = molecular target: T9, human complement protein C1q (from normal human serum) (human, UniProt P02745 23-245; P02746 28-253; P02747 29-245); test: flow cytometry, C1q (20% normal human serum) binding to antibody bound on human T cells, FITC anti-C1q
T9 construct: Native C1q supplied as 20% normal human serum
T9 sequence (P02745 23-245, chain 1 of 3): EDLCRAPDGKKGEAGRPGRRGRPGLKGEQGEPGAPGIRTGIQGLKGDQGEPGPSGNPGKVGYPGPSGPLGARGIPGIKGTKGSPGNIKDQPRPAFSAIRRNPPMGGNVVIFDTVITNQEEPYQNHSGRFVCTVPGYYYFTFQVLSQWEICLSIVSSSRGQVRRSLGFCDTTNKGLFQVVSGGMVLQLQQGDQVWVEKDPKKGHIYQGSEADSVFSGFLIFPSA
T9 sequence (P02746 28-253, chain 2 of 3): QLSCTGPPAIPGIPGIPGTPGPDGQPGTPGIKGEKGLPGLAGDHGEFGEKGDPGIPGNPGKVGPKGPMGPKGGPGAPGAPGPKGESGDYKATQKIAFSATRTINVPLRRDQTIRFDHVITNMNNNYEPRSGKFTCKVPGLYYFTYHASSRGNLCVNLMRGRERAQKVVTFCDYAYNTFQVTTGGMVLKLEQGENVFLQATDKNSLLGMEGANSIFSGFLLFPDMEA
T9 sequence (P02747 29-245, chain 3 of 3): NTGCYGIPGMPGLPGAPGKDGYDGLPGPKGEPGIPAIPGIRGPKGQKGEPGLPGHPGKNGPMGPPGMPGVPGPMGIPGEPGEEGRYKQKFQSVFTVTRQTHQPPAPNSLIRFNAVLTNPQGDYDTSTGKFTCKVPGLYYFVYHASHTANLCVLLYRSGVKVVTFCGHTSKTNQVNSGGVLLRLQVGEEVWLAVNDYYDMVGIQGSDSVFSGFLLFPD

[10] = molecular target: T9, human complement protein C1q (from …); test: flow cytometry, C1q (20% normal human serum) binding to antibody bound on human T cells, FITC anti-C1q, median MFI FITC
[11] = molecular target: cynomolgus monkey PD-1 on transfected CHO-S cells (cynomolgus monkey, UniProt B0LAJ3 25-288); test: flow cytometry on CHO-S cells transiently transfected with cynomolgus monkey PD-1, PE goat anti-human IgG F(ab')2, gMFI (PE)
Chain of cynomolgus monkey PD-1 on transfected CHO-S cells (B0LAJ3 entry or part of it limits assumed): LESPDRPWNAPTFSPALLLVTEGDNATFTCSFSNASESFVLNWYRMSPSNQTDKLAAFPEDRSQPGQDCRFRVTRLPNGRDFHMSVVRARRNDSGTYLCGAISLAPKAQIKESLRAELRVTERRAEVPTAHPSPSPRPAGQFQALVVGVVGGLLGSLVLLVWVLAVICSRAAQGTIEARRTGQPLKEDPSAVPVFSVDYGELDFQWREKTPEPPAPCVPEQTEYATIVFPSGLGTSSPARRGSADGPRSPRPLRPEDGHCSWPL

[12] = molecular target: T10, recombinant His-tagged human FcγRIIIa, 176-Phe [F] / F158 variant (human, UniProt P08637 17-208); test: SPR (Biacore 8K), His-tagged FcγR captured on anti-His chip, antibody injected, binding response (RU), n=3
T10 construct: also called FcγRIIIa-F; FcγRIIIa-F158
T10 sequence (P08637 17-208 limits assumed, change not shown): as the sequence (P08637 other isoform, or with tags, fused parts or gaps mutant limits assumed) above, with V160F counted along it

B1: IgG1-CD27-A as bispecific antibody with one CD27-specific Fab-arm and one non-binding Fab-arm (bispecific antibody)
chain 1: QVQLMQSGSELKKPGASVKVSCRASGYTFTTYAMNWVRQAPGQGPEWMGWINTNTGNPTYAQGFTGRFVFSLDTTVTTTYLQISSLKAEDTAVYFCAREAGSFDYWGQGTLVTVSS
chain 2: QSALTQPASVSGSPGQSITISCTGTSSDVYYYNYVSWYQQHPGRAPKLVIYDVSNRPSGVSNRFSGSKSGNTASLTISGLRAEDEADYYCSSYTVNRVWVFGGGTKLTVL
chain 3: QVQLVQSGAEVKKPGASVKVSCQASGYRFSNFVIHWVRQAPGQRFEWMGWINPYNGNKEFSAKFQDRVTFTADTSANTAYMELRSLRSADTAVYYCARVGPYSWDDSPQDNYYMDVWGKGTTVIVSSASTKGPSVFPLAPSSKSTSGGTAALGCLVKDYFPEPVTVSWNSGALTSGVHTFPAVLQSSGLYSLSSVVTVPSSSLGTQTYICNVNHKPSNTKVDKRVEPKSCDKTHTCPPCPAPEFEGGPSVFLFPPKPKDTLMISRTPEVTCVVVAVSHEDPEVKFNWYVDGVEVHNAKTKPREEQYNSTYRVVSVLTVLHQDWLNGKEYKCKVSNKALPAPIEKTISKAKGQPREPQVYTLPPSREEMTKNQVSLTCLVKGFYPSDIAVEWESNGQPENNYKTTPPVLDSDGSFFLYSRLTVDKSRWQQGNVFSCSVMHEALHNHYTQKSLSLSPG
chain 4: EIVLTQSPGTLSLSPGERATFSCRSSHSIRSRRVAWYQHKPGQAPRLVIHGVSNRASGISDRFSGSGSGTDFTLTITRVEPEDFALYYCQVYGASSYTFGQGTKLERKRTVAAPSVFIFPPSDEQLKSGTASVVCLLNNFYPREAKVQWKVDNALQSGNSQESVTEQDSKDSTYSLSSTLTLSKADYEKHKVYACEVTHQGLSSPVTKSFNRGEC
- Kd [1]: 120 nM
- koff [1]: 0.02 s⁻¹
- kon [1]: 170000 M⁻¹ s⁻¹
- Kd [2]: 130 nM
- koff [2]: 0.018 s⁻¹
- kon [2]: 130000 M⁻¹ s⁻¹

B2: nivolumab (antibody, human IgG4 S228P, kappa)
heavy: not shown
light: not shown
notes: also called Opdivo
- binding result [3]: binds
- EC50 (read off the curve) [4]: ~0.2 µg/mL
- binding result [5]: binds
- Kd [6]: 133 nM
- koff [6]: 0.0689 s⁻¹
- kon [6]: 518000 M⁻¹ s⁻¹
- binding result [7]: binds
- binding result [8]: binds

B3: IgG1-CD27-A (wild-type IgG1 Fc) (antibody)
heavy: not shown
light: QSALTQPASVSGSPGQSITISCTGTSSDVYYYNYVSWYQQHPGRAPKLVIYDVSNRPSGVSNRFSGSKSGNTASLTISGLRAEDEADYYCSSYTVNRVWVFGGGTKLTVLGQPKAAPSVTLFPPSSEELQANKATLVCLISDFYPGAVTVAWKADSSPVKAGVETTTPSKQSNNKYAASSYLSLTPEQWKSHRSYSCQVTHEGSTVEKTVAPTECS
notes: also called WT IgG1-CD27-A; IgG-CD27-A; copies: 2 + 2
- binding result [9]: no binding (tested: 15 µg/mL)

B4: IgG1-CD27-A-E345R (antibody)
heavy: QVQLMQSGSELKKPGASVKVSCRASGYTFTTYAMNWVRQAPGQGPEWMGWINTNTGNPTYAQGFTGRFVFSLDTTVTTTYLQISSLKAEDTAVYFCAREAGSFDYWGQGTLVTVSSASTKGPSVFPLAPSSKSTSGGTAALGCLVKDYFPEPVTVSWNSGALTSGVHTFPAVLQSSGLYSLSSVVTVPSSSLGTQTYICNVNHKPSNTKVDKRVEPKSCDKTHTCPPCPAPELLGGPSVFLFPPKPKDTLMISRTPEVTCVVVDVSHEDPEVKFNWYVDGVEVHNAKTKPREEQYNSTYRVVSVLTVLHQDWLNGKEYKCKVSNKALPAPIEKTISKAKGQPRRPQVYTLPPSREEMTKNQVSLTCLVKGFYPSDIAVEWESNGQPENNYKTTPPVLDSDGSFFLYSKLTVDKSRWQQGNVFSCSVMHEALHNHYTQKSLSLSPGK
light: QSALTQPASVSGSPGQSITISCTGTSSDVYYYNYVSWYQQHPGRAPKLVIYDVSNRPSGVSNRFSGSKSGNTASLTISGLRAEDEADYYCSSYTVNRVWVFGGGTKLTVLGQPKAAPSVTLFPPSSEELQANKATLVCLISDFYPGAVTVAWKADSSPVKAGVETTTPSKQSNNKYAASSYLSLTPEQWKSHRSYSCQVTHEGSTVEKTVAPTECS
notes: Human IgG1 with E345R (Eu numbering); also called IgG-CD27-A-E345R; copies: 2 + 2
- binding result [10]: binds

B5: IgG1-CD27-A-E430G (antibody)
heavy: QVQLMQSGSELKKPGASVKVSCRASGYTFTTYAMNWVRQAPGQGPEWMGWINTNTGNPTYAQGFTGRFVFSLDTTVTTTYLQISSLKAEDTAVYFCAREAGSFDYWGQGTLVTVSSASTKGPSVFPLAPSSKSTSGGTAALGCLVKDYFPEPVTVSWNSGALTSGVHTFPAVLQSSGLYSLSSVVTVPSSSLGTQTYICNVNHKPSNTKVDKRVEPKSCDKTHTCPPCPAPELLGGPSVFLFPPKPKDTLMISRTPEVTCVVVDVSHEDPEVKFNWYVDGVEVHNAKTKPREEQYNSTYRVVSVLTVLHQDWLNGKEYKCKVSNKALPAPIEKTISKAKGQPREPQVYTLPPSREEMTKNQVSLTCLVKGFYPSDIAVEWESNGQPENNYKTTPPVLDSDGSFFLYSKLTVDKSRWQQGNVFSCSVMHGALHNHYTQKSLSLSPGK
light: QSALTQPASVSGSPGQSITISCTGTSSDVYYYNYVSWYQQHPGRAPKLVIYDVSNRPSGVSNRFSGSKSGNTASLTISGLRAEDEADYYCSSYTVNRVWVFGGGTKLTVLGQPKAAPSVTLFPPSSEELQANKATLVCLISDFYPGAVTVAWKADSSPVKAGVETTTPSKQSNNKYAASSYLSLTPEQWKSHRSYSCQVTHEGSTVEKTVAPTECS
notes: Human IgG1 with E430G (Eu numbering); copies: 2 + 2
- EC50 (read off the curve) [10]: ~0.03 µg/mL

B6: dostarlimab (antibody)
chain 1: not shown
chain 2: DIQLTQSPSFLSAYVGDRVTITCKASQDVGTAVAWYQQKPGKAPKLLIYWASTLHTGVPSRFSGSGSGTEFTLTISSLQPEDFATYYCQHYSSYPWTFGQGTKLEIKRTVAAPSVFIFPPSDEQLKSGTASVVCLLNNFYPREAKVQWKVDNALQSGNSQESVTEQDSKDSTYSLSSTLTLSKADYEKHKVYACEVTHQGLSSPVTKSFNRGEC
- EC50 (read off the curve) [4]: ~0.2 µg/mL

B7: pembrolizumab (antibody, human IgG4 S228P, kappa)
heavy: not shown
light: EIVLTQSPATLSLSPGERATLSCRASKGVSTSGYSYLHWYQQKPGQAPRLLIYLASYLESGVPARFSGSGSGTDFTLTISSLEPEDFAVYYCQHSRDLPLTFGGGTKVEIKRTVAAPSVFIFPPSDEQLKSGTASVVCLLNNFYPREAKVQWKVDNALQSGNSQESVTEQDSKDSTYSLSSTLTLSKADYEKHKVYACEVTHQGLSSPVTKSFNRGEC
notes: also called Keytruda
- EC50 (read off the curve) [11]: ~0.05 µg/mL
- EC50 (read off the curve) [4]: ~0.8 µg/mL
- binding result [12]: binds
- binding result [8]: binds
